Measured values as given in publication PMC7057950 (2020).

Biological target: the molecule itself

B1: hHsp90β (protein)
chain: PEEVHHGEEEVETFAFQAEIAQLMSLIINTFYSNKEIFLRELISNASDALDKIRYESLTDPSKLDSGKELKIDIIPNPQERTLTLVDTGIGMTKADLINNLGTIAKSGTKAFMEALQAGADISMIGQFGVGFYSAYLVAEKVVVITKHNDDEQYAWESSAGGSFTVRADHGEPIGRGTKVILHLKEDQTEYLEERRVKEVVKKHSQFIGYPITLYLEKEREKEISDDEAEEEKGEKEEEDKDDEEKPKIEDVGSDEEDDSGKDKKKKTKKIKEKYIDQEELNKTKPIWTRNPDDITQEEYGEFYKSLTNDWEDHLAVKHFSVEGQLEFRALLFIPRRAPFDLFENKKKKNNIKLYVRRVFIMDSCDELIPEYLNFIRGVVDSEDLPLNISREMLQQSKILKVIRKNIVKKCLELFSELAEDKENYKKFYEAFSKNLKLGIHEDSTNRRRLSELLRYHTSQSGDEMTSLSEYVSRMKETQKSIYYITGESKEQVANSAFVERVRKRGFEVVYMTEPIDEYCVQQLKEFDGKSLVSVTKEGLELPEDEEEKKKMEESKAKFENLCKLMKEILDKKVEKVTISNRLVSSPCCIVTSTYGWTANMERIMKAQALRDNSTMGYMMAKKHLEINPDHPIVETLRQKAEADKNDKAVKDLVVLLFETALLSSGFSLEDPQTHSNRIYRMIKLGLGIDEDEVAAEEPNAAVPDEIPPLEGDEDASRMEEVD
Q: B1 was tested. Which Kd did it give?
A: ~9.5 nM
